Data published in article PMC2947474 (Molecular Biology of the Cell, 2010).

How the values were obtained:
V5-tagged Vps53 = target: T1, V5-tagged Vps53 (human, UniProt Q5VIR6 1-832); assay: sedimentation velocity on glycerol gradient + SEC
T1 sequence: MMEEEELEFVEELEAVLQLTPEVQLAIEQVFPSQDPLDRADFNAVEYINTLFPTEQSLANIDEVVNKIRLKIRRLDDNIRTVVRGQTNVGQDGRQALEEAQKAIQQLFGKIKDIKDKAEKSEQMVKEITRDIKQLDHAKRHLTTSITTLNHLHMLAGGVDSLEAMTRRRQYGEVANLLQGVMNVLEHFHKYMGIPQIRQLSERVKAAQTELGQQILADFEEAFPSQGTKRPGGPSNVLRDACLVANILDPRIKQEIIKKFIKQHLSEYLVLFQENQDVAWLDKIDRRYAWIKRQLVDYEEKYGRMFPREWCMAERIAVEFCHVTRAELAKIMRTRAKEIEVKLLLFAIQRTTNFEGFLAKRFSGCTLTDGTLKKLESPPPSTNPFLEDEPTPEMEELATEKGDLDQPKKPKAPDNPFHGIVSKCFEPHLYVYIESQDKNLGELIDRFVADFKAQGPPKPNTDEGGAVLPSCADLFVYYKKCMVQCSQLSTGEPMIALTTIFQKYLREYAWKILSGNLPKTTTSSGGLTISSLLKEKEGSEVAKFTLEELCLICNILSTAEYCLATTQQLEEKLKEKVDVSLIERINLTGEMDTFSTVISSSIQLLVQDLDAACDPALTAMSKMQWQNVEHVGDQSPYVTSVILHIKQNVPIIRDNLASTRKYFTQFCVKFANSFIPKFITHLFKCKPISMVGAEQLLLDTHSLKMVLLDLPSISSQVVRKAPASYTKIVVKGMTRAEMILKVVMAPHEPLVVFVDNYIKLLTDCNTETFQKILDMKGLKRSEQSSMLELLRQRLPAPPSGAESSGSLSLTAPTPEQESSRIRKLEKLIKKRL

V5-tagged Vps54 = target: T2, V5-tagged Vps54 (human, UniProt Q9P1Q0 1-977); assay: sedimentation velocity on glycerol gradient + SEC
T2 sequence: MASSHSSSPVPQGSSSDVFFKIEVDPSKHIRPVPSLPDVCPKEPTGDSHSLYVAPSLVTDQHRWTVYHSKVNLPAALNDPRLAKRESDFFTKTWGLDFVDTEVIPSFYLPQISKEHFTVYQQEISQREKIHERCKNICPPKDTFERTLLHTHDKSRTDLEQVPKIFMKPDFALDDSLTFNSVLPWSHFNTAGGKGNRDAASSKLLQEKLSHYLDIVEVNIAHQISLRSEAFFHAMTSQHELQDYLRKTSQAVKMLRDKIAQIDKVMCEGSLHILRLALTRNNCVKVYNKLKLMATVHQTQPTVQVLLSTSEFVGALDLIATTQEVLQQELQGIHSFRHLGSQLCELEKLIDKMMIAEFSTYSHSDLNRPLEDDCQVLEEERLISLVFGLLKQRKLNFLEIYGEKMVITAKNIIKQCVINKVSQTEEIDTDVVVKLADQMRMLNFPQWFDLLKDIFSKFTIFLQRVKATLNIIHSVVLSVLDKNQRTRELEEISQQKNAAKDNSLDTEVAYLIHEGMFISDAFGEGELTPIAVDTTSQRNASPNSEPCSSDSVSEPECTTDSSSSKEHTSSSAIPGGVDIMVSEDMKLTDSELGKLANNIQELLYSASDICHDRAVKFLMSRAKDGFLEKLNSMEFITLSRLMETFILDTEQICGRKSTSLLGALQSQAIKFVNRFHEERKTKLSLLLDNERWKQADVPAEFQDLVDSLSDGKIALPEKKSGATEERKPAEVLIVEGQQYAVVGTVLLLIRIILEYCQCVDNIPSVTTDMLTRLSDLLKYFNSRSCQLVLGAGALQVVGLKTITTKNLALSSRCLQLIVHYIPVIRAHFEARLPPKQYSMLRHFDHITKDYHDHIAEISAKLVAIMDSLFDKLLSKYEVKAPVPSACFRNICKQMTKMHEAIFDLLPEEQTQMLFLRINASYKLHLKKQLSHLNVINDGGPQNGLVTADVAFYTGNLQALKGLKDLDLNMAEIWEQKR

B1: V5-tagged human Ang2 (natural protein)
chain: MAAAAAAGPSPGSGPGDSPEGPEGEAPERRRKAHGMLKLYYGLSEGEAAGRPAGPDPLDPTDLNGAHFDPEVYLDKLRRECPLAQLMDSETDMVRQIRALDSDMQTLVYENYNKFISATDTIRKMKNDFRKMEDEMDRLATNMAVITDFSARISATLQDRHERITKLAGVHALLRKLQFLFELPSRLTKCVELGAYGQAVRYQGRAQAVLQQYQHLPSFRAIQDDCQVITARLAQQLRQRFREGGSGAPEQAECVELLLALGEPAEELCEEFLAHARGRLEKELRNLEAELGPSPPAPDVLEFTDHGGSGFVGGLCQVAAAYQELFAAQGPAGAEKLAAFARQLGSRYFALVERRLAQEQGGGDNSLLVRALDRFHRRLRAPGALLAAAGLADAATEIVERVARERLGHHLQGLRAAFLGCLTDVRQALAAPRVAGKEGPGLAELLANVASSILSHIKASLAAVHLFTAKEVSFSNKPYFRGEFCSQGVREGLIVGFVHSMCQTAQSFCDSPGEKGGATPPALLLLLSRLCLDYETATISYILTLTDEQFLVQDQFPVTPVSTLCAEARETARRLLTHYVKVQGLVISQMLRKSVETRDWLSTLEPRNVRAVMKRVVEDTTAIDVQVGLLYEEGVRKAQSSDSSKRTFSVYSSSRQQGRYAPSYTPSAPMDTNLLSNIQKLFSERIDVFSPVEFNKVSVLTGIIKISLKTLLECVRLRTFGRFGLQQVQVDCHFLQLYLWRFVADEELVHLLLDEVVASAALRCPDPVPMEPSVVEVICERG
stoichiometry N (V5-tagged Vps53): 1
stoichiometry N (V5-tagged Vps54): 1
